Measured values taken from patent US20250145690A1 (US Dept. of Health and Human Services, published 2025).
Positions count from the first letter of the chain named.

T1: HCoV-NL63 spike protein (Sino Biological 40604-V08B) (HCoV-NL63, UniProt Q6Q1S2 19-1296)
T1 sequence: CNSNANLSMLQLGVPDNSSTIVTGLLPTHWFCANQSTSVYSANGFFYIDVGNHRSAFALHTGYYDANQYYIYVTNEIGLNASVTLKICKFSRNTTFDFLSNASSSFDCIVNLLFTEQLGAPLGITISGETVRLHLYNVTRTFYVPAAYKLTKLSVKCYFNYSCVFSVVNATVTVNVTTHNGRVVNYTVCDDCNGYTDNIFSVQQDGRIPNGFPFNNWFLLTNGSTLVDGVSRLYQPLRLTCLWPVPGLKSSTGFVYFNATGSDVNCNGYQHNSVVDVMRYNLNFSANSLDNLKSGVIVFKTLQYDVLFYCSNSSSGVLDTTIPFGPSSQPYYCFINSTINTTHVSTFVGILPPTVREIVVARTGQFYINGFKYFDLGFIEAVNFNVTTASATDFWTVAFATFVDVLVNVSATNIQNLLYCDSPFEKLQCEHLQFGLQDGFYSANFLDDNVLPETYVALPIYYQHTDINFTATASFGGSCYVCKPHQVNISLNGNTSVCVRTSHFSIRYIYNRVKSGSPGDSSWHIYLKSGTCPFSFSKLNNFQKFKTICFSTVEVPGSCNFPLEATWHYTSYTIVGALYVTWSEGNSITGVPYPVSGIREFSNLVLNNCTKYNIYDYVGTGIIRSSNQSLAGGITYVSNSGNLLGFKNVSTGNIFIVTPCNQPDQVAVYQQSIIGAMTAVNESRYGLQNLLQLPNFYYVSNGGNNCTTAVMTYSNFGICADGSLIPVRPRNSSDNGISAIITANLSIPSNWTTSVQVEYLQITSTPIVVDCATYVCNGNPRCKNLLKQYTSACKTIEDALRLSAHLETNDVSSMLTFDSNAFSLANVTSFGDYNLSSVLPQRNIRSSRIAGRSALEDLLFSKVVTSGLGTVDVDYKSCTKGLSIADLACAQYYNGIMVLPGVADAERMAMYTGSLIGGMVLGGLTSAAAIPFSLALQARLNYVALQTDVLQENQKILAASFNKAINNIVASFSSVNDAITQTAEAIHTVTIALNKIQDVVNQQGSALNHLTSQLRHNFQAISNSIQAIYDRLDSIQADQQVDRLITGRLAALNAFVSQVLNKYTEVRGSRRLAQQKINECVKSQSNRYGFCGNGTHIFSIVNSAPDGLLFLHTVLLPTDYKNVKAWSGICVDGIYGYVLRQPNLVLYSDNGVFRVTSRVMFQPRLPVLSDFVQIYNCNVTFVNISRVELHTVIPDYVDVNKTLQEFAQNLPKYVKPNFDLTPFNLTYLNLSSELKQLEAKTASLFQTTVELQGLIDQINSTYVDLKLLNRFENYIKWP

T2: HCoV-229E spike protein (Sino Biological 40605-V08B) (HCoV-229E, UniProt P15423 16-1115)
T2 sequence: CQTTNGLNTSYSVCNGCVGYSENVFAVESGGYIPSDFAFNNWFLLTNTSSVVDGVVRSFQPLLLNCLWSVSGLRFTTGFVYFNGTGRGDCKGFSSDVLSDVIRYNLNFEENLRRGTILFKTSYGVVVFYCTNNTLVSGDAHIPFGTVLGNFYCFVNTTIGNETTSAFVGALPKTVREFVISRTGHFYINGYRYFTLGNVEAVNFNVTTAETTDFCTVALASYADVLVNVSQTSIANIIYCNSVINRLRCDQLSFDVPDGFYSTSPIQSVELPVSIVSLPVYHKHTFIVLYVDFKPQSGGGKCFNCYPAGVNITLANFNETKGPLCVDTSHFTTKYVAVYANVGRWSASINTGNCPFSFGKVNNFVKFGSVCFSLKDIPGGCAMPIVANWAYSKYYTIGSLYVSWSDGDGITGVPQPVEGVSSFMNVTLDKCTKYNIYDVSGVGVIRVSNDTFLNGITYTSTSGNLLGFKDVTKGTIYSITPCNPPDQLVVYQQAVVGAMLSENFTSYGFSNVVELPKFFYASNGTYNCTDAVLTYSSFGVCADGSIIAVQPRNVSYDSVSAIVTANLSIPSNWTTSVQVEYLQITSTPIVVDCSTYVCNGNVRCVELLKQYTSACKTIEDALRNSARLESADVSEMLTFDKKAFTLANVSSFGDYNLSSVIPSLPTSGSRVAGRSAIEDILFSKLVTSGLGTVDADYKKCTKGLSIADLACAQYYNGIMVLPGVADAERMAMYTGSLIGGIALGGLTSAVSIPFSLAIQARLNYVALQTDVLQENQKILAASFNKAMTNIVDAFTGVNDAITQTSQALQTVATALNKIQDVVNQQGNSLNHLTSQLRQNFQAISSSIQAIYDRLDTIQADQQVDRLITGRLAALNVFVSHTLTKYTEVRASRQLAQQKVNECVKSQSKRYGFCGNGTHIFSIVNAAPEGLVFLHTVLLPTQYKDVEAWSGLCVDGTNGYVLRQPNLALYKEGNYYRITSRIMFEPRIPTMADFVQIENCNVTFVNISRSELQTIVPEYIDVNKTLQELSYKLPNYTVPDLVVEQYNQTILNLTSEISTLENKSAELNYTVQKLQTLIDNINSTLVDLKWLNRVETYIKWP

B1: COV49-51 (antibody, V domains shown)
VH: QVQLVQSGAEAKKPGASVKVSCKASGYSFTSYHMHWVRQAPGQGLEWMGIINPNGGTTTYAPKFQGRVTMTSDTSTSTVYMELTSLRSEDTAVYYCSTVVGALWGQGTLVIVSS
VL: IVLTQSPGTLSLSPGERATLSCRASQSVRSNNYLAWYQQKPGQAPRLLIYGASTRATGIPDRFSGSGSGTDFTLTISRLEPEDFAVYYCQQYGSSPLTFGGGTRVEIK
B2: COV44-56 (antibody, V domains shown)
VH: QVLLVQSGAEVKKPGASVMVSCKASGYILNNYYMHWVRQAPGHGLEWMGIINPSGDGTRYAQKFQGRVTMTRDSSTTSIHMELRRVTSEDTAVYYCARGGSQSAFDMWGQGTVVLVSS
VL: DIVMTQSPRSLPVTPGESASISCRSSQSLLQKNGYNYLDWYVQKPGQSPQLLIYLGSYRASGVPDRISGSGSGTDFTLKINRVEAEDVGVYYCLQAQQAPPLYTFGQGTKLQIE
B3: COV44-54 (antibody, V domains shown)
VH: QVQLVQSGAEVKKPGASVRVSCKTSGYTFTNYYMTWVRQAPGQGLQWVGLISPSAGYTAYAQMFQGRVTMTSDTSTSTVYMQLSSLRSEDTAIYYCTRVAVAGPNDYWGQGTLVTVSS
VL: EIVLTQSPGTLSLSPGERATLSCRASQSISGSYLAWYQQKPGQAPRLVIYAASSRATGIPDRFSGSGSGTDFILTISRLEAEDFAVYFCQHYRSSPPLWTFGQGTKVEIR
B4: COV49-03 (antibody, V domains shown)
VH: DVQLLESGGGLVQPGGSRRLSCAASGFTFSNYAMSWVRQAPGKGLEWVSAISGGGATTYYADSVQGRFTMSRDNSNNTLYLQMSSLRAEDTAVYYCTKGAFYDILSSIIVEGDYWGQGTLVTVSS
VL: DVVLTQSPLSLPITLGQPASISCRSSQSLVFSDGNTYLNWFQQRPGQSPRRLIYKVSNRDSGVPDRFSGSGSGTDFTLKISRVEAEDVGVYYCMQGTHWLSITFGQGTRLEIK
B5: COV49-04 (antibody, V domains shown)
VH: EVQLLESGGGLVQPGGSLRLSCATSGFTFSSYAMTWVRQAPGKGLEWVSAISGGGATTYSTDSVKGRFTTSRDNSKNTLYLQMNNLRAEDTALYYCAKGAFYNILSSIIVEGDYWGQGTLVTVSS
VL: B4 VL with L4M, P12S, I13V, N35D, K55R, E111D
B6: COV49-05 (antibody, V domains shown)
VH: EVQLLESGGGLAQPGGSLRLSCVASGFSFNDYAMTWVRQAPGKGLEWVSAVSSGGQTTYSTDSVKGRFTISRDNSKNMLYLQMNSLRAEDTAVYYCVKGAFYNILSSIIVEGDYWGQGTLVTVSS
VL: B4 VL with D1G, I13V, K55Q, S61P
B7: COV49-23 (antibody, V domains shown)
VH: B6 VH with L20I, T35A, Q39R, S53G, I70T, M78T, S85G, T119A
VL: B4 VL with D1G, I13V, K55Q, S61P
B8: COV49-28 (antibody, V domains shown)
VH: B6 VH with E1G, R19K, Q39R, A40P, T58S, M78T, N84S, V93I
VL: B4 VL with D1G, I13V, N35K, K55Q, S61P
B9: COV49-33 (antibody, V domains shown)
VH: B6 VH with N30D, A40P, S53G, I70T, M78T, A88G
VL: B4 VL with D1V, I13V, I21V, K55Q, S61P
B10: COV49-47 (antibody, V domains shown)
VH: B6 VH with T35A, S53G, I70T, M78T, S85G, T91A, Y114N
VL: B4 VL with D1G, I13V, K55Q, S61P
B11: COV49-06 (antibody, V domains shown)
VH: EVQLLESGGGLVRPGGSLRLSCAASGFTFTNYAMSWVRQAPGKGLEWVSAISGGDGRTSYYADSVKGRFTSSRDNSKNTLYLQMNSLRAEDTAVYYCAKGAFYNILSSIIVEGDYWGQGTLVTVSS
VL: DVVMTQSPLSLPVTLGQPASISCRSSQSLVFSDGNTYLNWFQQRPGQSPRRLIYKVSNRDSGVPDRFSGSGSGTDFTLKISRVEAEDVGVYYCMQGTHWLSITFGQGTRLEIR

The binders below were run against T1, HCoV-NL63 spike protein (Sino …) (assay: bead flow cytometry, AUC minus CD4).
B1: no binding (tested: 200 µg/mL).
B2: no binding (tested: 200 µg/mL).
B3: no binding (tested: 200 µg/mL).
B4: no binding (tested: 200 µg/mL).
B5: no binding (tested: 200 µg/mL).
B6: no binding (tested: 200 µg/mL).
B7: no binding (tested: 200 µg/mL).
B8: no binding (tested: 200 µg/mL).
B9: no binding (tested: 200 µg/mL).
B10: no binding (tested: 200 µg/mL).
B11: no binding (tested: 200 µg/mL).

Each binder was assayed against T2, HCoV-229E spike protein (Sino …) (assay: bead flow cytometry, AUC minus CD4).
B1: no binding (tested: 200 µg/mL).
B2: no binding (tested: 200 µg/mL).
B3: no binding (tested: 200 µg/mL).
B4: no binding (tested: 200 µg/mL).
B5: no binding (tested: 200 µg/mL).
B6: no binding (tested: 200 µg/mL).
B7: no binding (tested: 200 µg/mL).
B8: no binding (tested: 200 µg/mL).
B9: no binding (tested: 200 µg/mL).
B10: no binding (tested: 200 µg/mL).
B11: no binding (tested: 200 µg/mL).

Each binder was assayed against SARS-CoV-2 spike receptor binding domain (RBD), recombinant (SARS-CoV-2, UniProt P0DTC2 319-541) (assay: bead flow cytometry, AUC minus CD4).
B1: no binding (tested: 200 µg/mL).
B2: no binding (tested: 200 µg/mL).
B3: no binding (tested: 200 µg/mL).
B4: no binding (tested: 200 µg/mL).
B5: no binding (tested: 200 µg/mL).
B6: no binding (tested: 200 µg/mL).
B7: no binding (tested: 200 µg/mL).
B8: no binding (tested: 200 µg/mL).
B9: no binding (tested: 200 µg/mL).
B10: no binding (tested: 200 µg/mL).
B11: no binding (tested: 200 µg/mL).

What follows are binders tested against SARS-CoV-2 spike N-terminal domain (NTD), recombinant (SARS-CoV-2, UniProt P0DTC2 14-305) (assay: bead flow cytometry, AUC minus CD4).
B1: no binding (tested: 200 µg/mL).
B2: no binding (tested: 200 µg/mL).
B3: no binding (tested: 200 µg/mL).
B4: no binding (tested: 200 µg/mL).
B5: no binding (tested: 200 µg/mL).
B6: no binding (tested: 200 µg/mL).
B7: no binding (tested: 200 µg/mL).
B8: no binding (tested: 200 µg/mL).
B9: no binding (tested: 200 µg/mL).
B10: no binding (tested: 200 µg/mL).
B11: no binding (tested: 200 µg/mL).
